In patent US20210172932A1 (published 2021) one finds Kd data, which are given here for four molecules.

A word on the Kd: it is the concentration at which binding is half-saturated. The low end stands for tighter binding, the high end for weaker binding.

In the assay the target is T1, human FcRn (immobilized on nickel-nitrilotriacetic acid-coated biosensors) (human, UniProt P55899 24-297; P61769 21-119).
T1 construct: also called neonatal Fc receptor
Description: BLI (Octet RED), FcRn on Ni-NTA biosensor, pH 6.0. Background: BLI is a label-free optical method that tracks binding on a fibre tip over time.

B1: Tocilizumab (antibody)
chain 1: not shown
chain 2: not shown
B1 returned a Kd of 460 nM.

B2: Pembrolizumab (antibody)
chain 1: not shown
chain 2: EIVLTQSPATLSLSPGERATLSCRASKGVSTSGYSYLHWYQQKPGQAPRLLIYLASYLESGVPARFSGSGSGTDFTLTISSLEPEDFAVYYCQHSRDLPLTFGGGTKVEIKRTVAAPSVFIFPPSDEQLKSGTASVVCLLNNFYPREAKVQWKVDNALQSGNSQESVTEQDSKDSTYSLSSTLTLSKADYEKHKVYACEVTHQGLSSPVTKSFNRGEC
The molecule B2 registered a Kd of 290 nM.

B3: Vedolizumab (antibody)
chain 1: not shown
chain 2: DVVMTQSPLSLPVTPGEPASISCRSSQSLAKSYGNTYLSWYLQKPGQSPQLLIYGISNRFSGVPDRFSGSGSGTDFTLKISRVEAEDVGVYYCLQGTHQPYTFGQGTKVEIKRTVAAPSVFIFPPSDEQLKSGTASVVCLLNNFYPREAKVQWKVDNALQSGNSQESVTEQDSKDSTYSLSSTLTLSKADYEKHKVYACEVTHQGLSSPVTKSFNRGEC
Regarding B3, the Kd stood at 610 nM.

B4: Emicizumab (bispecific antibody)
chain 1: DIQMTQSPSSLSASVGDRVTITCKASRNIERQLAWYQQKPGQAPELLIYQASRKESGVPDRFSGSRYGTDFTLTISSLQPEDIATYYCQQYSDPPLTFGGGTKVEIKRTAAAPSVFIFPPSDEQLKSGTASVVCLLNNFYPREAKVQWKVDNALQSGNSQESVTEQDSKDSTYSLSSTLTLSKADYEKHKVYACEVTHQGLSSPVTKSFNRGEC
chain 2: QVQLVESGGGLVQPGGSLRLSCAASGFTFSYYDIQWVRQAPGKGLEWVSSISPSGQSTYYRREVKGRFTISRDNSKNTLYLQMNSLRAEDTAVYYCARRTGREYGGGWYFDYWGQGTLVTVSSASTKGPSVFPLAPCSRSTSESTAALGCLVKDYFPEPVTVSWNSGALTSGVHTFPAVLQSSGLYSLSSVVTVPSSSLGTQTYTCNVDHKPSNTKVDKRVESKYGPPCPPCPAPEFLGGPSVFLFPPKPKDTLMISRTPEVTCVVVDVSQEDPEVQFNWYVDGVEVHNAKTKPREEQYNSTYRVVSVLTVLHQDWLNGKEYKCKVSNKGLPSSIEKTISKAKGQPREPQVYTLPPSQKEMTKNQVSLTCLVKGFYPSDIAVEWESNGQPENNYKTTPPVLDSDGSFFLYSKLTVDKSRWQEGNVFSCSVMHEALHNRYTQKSLSLSPEQKLISEEDLNAVGQDTQEVIVVPHSLPFKVVVISAILALVVLTIISLIILIMLWQKKPR
chain 3: QVQLVQSGSELKKPGASVKVSCKASGYTFTDNNMDWVRQAPGQGLEWMGDINTRSGGSIYNEEFQDRVIMTVDKSTDTAYMELSSLRSEDTATYHCARRKSYGYYLDEWGEGTLVTVSSASTKGPSVFPLAPCSRSTSESTAALGCLVKDYFPEPVTVSWNSGALTSGVHTFPAVLQSSGLYSLSSVVTVPSSSLGTQTYTCNVDHKPSNTKVDKRVESKYGPPCPPCPAPEFLGGPSVFLFPPKPKDTLMISRTPEVTCVVVDVSQEDPEVQFNWYVDGVEVHNAKTKPREEQYNSTYRVVSVLTVLHQDWLNGKEYKCKVSNKGLPSSIEKTISKAKGQPREPQVYTLPPSQEEMTKNQVSLTCLVKGFYPSDIAVEWESNGQPENNYKTTPPVLDSDGSFFLYSKLTVDKSRWQEGNVFSCSVMHEALHNHYTQESLSLSPEQKLISEEDLNAVGQDTQEVIVVPHSLPFKVVVISAILALVVLTIISLIILIMLWQKKPR
For the molecule B4, binding was put at a Kd of 1230 nM.
